Fewer inactive variants are shown than the library holds.
B1: TPR 5TU (parent)
chain: GGAUCUUCUCGAUCUAACAAAAAAGACAAAUCUGCCACAAAGCUUGAGAGCAUCUUCGGAUGCAGAGGCGGCAGCCUUCGGUGGCGCGAUAGCGCCAACGUUCUCAACUAUGACACGCAAAACGCGUGCUCCGUUGAAUGGAGUUUAUCAUG

Variants of: B1
Assay: polymerase ribozyme fitness, log enrichment relative to wild type (log ratio); higher = more active; in vitro selection for triplet polymerase activity
In short: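 Fitness compares each genotype's enrichment to that of the wild type on a logarithmic scale, averaging replicates with inverse-variance weights. The logarithm is base 2. Enrichment came from Illumina sequencing of input and output libraries after one triplicate round of in vitro selection, which included frozen incubation at −7 °C, of PCR-built, transcribed mutant libraries of each subunit of a heterodimeric triplet polymerase ribozyme. Only genotypes with ≥10 input reads and ≥1 read per output were kept.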

| Variant | polymerase ribozyme fitness (log ratio) |
| --- | --- |
| A28G U61G C95A A97U A107U | ≤ -4.2 |
| A28C C87G G117C A137U | ≤ -4.2 |
| A28U A29G A30U U61A G80C C93A A113U G140U G141A | ≤ -4.2 |
| A28U G50A C85G | ≤ -4.2 |
| A28C C85A | ≤ -4.2 |
| A28U C99A | -4.15 |
| A29G C35G G84C G100A | ≤ -4.2 |
| C27U C93U U104A | -3.11 |
| A28U G42C A52C G100C G117C | ≤ -4.2 |
| A28U A49C C103G | ≤ -4.2 |
| A28G U56A G136C | ≤ -4.2 |
| A28U U56A G81A C95U | ≤ -4.2 |
| A28G G140A | -4.13 |
| A28U G74A C85U A91U | ≤ -4.2 |
| C27U G86U C99G | ≤ -4.2 |
| C27U G34A A66G A113C A121C | ≤ -4.2 |
| A28C G58U A113G A119U | ≤ -4.2 |
| A28C C43U C76G A110G A138U | ≤ -4.2 |
| A29G C38U U53G C85G A98U C108A G128U | -3.97 |
| A29C A41U G83A A138U | ≤ -4.2 |
| A29C U44A A52U G58A C118A | ≤ -4.2 |

| Variant | polymerase ribozyme fitness (log ratio) |
| --- | --- |
| A28G U44G A91U C99U | ≤ -4.2 |
| A29C G58A G83A C118U | ≤ -4.2 |
| A29C A49U A52C C54A A89C C123A U135G G140C | ≤ -4.2 |
| A28C G59U A91G U135C | ≤ -4.2 |
| A29C A52G U55A C75G A106U A110G A121U U127A | ≤ -4.2 |
| C27U C95U | -2.39 |
| A28U G65U U82G U101G C103A G152U | ≤ -4.2 |
| C27U C76A | -2.31 |
| C27U C76U | -1.42 |
| A28U A49U U139G | ≤ -4.2 |
| A28G G42U | ≤ -4.2 |
| A28U A30C C79A | ≤ -4.2 |
| A28C U82A | ≤ -4.2 |
| A28U A40U G48A A119U U127C U146G | ≤ -4.2 |
| A28U A47C U130G | ≤ -4.2 |
| A28C C51U C57A A73U C87G U101G A121U | ≤ -4.2 |
| A28U C87U A119C A138U G140C | ≤ -4.2 |
| A28U C32U A39U G58U C87U | ≤ -4.2 |
| A29C | -3.73 |
| A29G | -1.81 |
| C27U C75A G81A G92A U135A | ≤ -4.2 |

| Variant | polymerase ribozyme fitness (log ratio) |
| --- | --- |
| A28C A30U A60C C75A C76U C93A C95G | ≤ -4.2 |
| A28U A41U C57A G70C G88U A89U C95A | ≤ -4.2 |
| A28G C116U | -3.63 |
| A28U A37C C79U C87U | -3.89 |
| C27U G86A U145A G152A | ≤ -4.2 |
| A28U U61C G68A G86A A89U G117C | ≤ -4.2 |
| A28U G80A A91U | ≤ -4.2 |
| C27U C75G C85A C105G U130G U146G | ≤ -4.2 |
| A28C G34A C38G C72U C76A C96G U151A | ≤ -4.2 |
| A29C G50C C114U | ≤ -4.2 |
| C27U G50U U55A C96A A110G G133U | -3.94 |
| A28U A30C U53G A64U C118U | ≤ -4.2 |
| A28C U55A C75G | ≤ -4.2 |
| A29G C51U C96G | ≤ -4.2 |
| A28G A29U C43G A47C G84U A110U | ≤ -4.2 |
| A29C A41U G81C G86C C105G A106U | ≤ -4.2 |
| C27U G92U | -1.78 |
| C27U C95U U102A | -2.66 |
| A28U G83C G92U C96U | ≤ -4.2 |
| A28U A37U A73G G92U A106G C118G | ≤ -4.2 |
| A28C A39U C103U C116G U139G | ≤ -4.2 |

| Variant | polymerase ribozyme fitness (log ratio) |
| --- | --- |
| A28C A52U C87U | ≤ -4.2 |
| A28G A49U U56A A66U U90G A106U C108G A119G | ≤ -4.2 |
| A28G G50C A122G U145C U148A | ≤ -4.2 |
| A28C U151A | ≤ -4.2 |
| A29G C36A A47C G50C C76A C85U C118A A121U U135G | ≤ -4.2 |
| A28C C35U G124A G141U | ≤ -4.2 |
| A28G U44A G83C A147G | ≤ -4.2 |
| A28C U31G A41U G65A C85G G88U C96U C103U U135G | ≤ -4.2 |
| C27U C87A | ≤ -4.2 |
| A28G U55A | -2.49 |
| C27U G83A C95U U102A G126C | -3.56 |
| C27U G84A A89G | -3.59 |
| A29C C54A G70U | ≤ -4.2 |
| A29C U33C U44A G80U C85U C93U G136U | ≤ -4.2 |
| A28U U44G U82G C87U C114U G133A U146G | ≤ -4.2 |
| A28G A30U C32A C85A C95U A115U | ≤ -4.2 |
| A29C C51G C57G G92C A107C A110C G124A U145A U151G | ≤ -4.2 |
| A28G A52C U53C C57U C87A G141A | ≤ -4.2 |
| A29C G94A A110U G124A A147U | ≤ -4.2 |
| C27U G86A | -2.94 |

Source: the RNAGym collection of RNA variant scans (doi:10.1073/pnas.2313332121)
